Here are results for five molecules from patent US20140087995A1 (published 2014).

Numbered stars: 1 amine (or outer) side, 2 acyl side, 3 side chain; on linkers, the order of the positions; unused ones are H or OH. Bridge positions count the residues as written; N and C are the ends. Side chains are listed from the residue outwards. Ends that are not written are not given here. * marks the point of attachment. C20 diacid = O=C(O)CCCCCCCCCCCCCCCCCCC(=O)*; γGlu = O=C(O)[C@H](CCC(=O)[*:2])N[*:1]

The target of assay [1] is T1, human amylin receptor (amylin 3(a) receptor: human calcitonin receptor with RAMP-3) (human, UniProt P30988 25-474; O60896 24-148).
T1 construct: whole, on cells; Assay used cell membranes of the Amylin 3(a)/CRE-luc BHK cells, not intact cells; also called hAmylin-R; hAmylinR
T1 sequence (looked up) 1: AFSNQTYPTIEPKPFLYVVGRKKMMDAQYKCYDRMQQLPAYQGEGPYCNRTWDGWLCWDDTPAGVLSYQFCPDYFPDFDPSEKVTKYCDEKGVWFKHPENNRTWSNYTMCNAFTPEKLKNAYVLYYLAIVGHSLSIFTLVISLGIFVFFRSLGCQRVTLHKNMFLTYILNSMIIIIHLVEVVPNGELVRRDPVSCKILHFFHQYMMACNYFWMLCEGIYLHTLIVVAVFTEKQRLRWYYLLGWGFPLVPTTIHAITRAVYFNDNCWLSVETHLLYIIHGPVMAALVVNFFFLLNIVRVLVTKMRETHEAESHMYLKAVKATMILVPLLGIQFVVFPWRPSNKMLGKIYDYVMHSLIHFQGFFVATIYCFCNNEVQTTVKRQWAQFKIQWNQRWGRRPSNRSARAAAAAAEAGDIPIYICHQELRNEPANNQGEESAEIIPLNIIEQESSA
T1 sequence (looked up) 2: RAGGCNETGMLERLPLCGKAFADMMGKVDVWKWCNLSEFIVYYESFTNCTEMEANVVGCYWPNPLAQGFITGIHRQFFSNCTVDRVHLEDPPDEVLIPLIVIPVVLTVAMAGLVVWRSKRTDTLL
The assay can be described thus: SPA competition with 125I-rat amylin on membranes of BHK cells with human calcitonin receptor and RAMP-3 (Assay V). In a few lines: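 Membranes from BHK Amylin 3(a)/CRE-luc cells (35 ng/μL final) were mixed with SPA beads and test compounds in 50 mM Hepes pH 7.4 with 1 mM CaCl2, 5 mM MgCl₂, 0.1% OA and 0.02% Tween20. Incubation ran 120 min at 25° C with shaking; IC₅₀ came from one-site competition fitting.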

Assay [2] has as its target T2, human calcitonin receptor (human, UniProt P30988 25-474).
T2 construct: whole, on cells; Assay used cell membranes, not intact cells; also called hCTR; hCT
T2 sequence (looked up): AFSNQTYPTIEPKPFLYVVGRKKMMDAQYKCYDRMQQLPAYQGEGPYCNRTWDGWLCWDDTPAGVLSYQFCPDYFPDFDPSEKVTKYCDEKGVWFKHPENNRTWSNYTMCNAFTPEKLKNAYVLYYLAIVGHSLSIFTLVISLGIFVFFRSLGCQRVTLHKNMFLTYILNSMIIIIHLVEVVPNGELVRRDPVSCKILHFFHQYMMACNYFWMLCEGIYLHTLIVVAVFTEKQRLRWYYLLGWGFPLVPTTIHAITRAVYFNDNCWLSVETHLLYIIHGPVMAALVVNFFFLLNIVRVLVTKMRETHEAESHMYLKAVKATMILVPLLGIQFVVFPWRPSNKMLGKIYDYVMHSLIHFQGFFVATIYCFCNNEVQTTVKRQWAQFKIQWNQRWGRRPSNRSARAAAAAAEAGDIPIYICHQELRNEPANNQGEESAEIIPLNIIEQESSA
The assay can be described thus: ratio IC50 hCTR / IC50 hAmylin-R (reference: human amylin receptor), SPA competition assays. In a few lines: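 Scintillation proximity competition binding on cell membranes at 35 ng/μL with SPA beads, in 50 mM Hepes pH 7.4, 1 mM CaCl2, 5 mM MgCl₂, 0.1% OA, 0.02% Tween20. Incubated 120 min at 25° C with shaking. IC₅₀ from one-site competition fit.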

Assay [3] deals with T2, human calcitonin receptor. The assay can be described thus: SPA competition with 125I-calcitonin on membranes of BHK cells with human calcitonin receptor (Assay VII). In a few lines:
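BHK hCTR membranes 35 ng/μL + SPA beads 0.05 mg/well; buffer 50 mM Hepes pH 7.4, 1 mM CaCl2, 5 mM MgCl₂, 0.1% OA, 0.02% Tween20. 120 min, 25° C., shaking. Scintillation count; IC50 by one-site binding competition.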

B1: N^ε1-[(4S)-4-carboxy-4-[[(4S)-4-carboxy-4-(19-carboxynonadecanoylamino)butanoyl]amino]butanoyl]-[Arg17,Pro21,Pro27,Pro31,Pro34,Arg35]-h-amylin (peptide)
peptide: K([γGlu-γGlu-C20 diacid])CNTATCATQRLANFLRHSSPNFGAIPSSTPVGPRTY-NH2
modifications: disulfide 2-7; N-terminus assumed
SMILES: CC[C@H](C)[C@H](NC(=O)[C@H](C)NC(=O)CNC(=O)[C@H](Cc1ccccc1)NC(=O)[C@H](CC(N)=O)NC(=O)[C@@H]1CCCN1C(=O)[C@H](CO)NC(=O)[C@H](CO)NC(=O)[C@H](Cc1c[nH]cn1)NC(=O)[C@H](CCCNC(=N)N)NC(=O)[C@H](CC(C)C)NC(=O)[C@H](Cc1ccccc1)NC(=O)[C@H](CC(N)=O)NC(=O)[C@H](C)NC(=O)[C@H](CC(C)C)NC(=O)[C@H](CCCNC(=N)N)NC(=O)[C@H](CCC(N)=O)NC(=O)[C@@H](NC(=O)[C@H](C)NC(=O)[C@@H]1CSSC[C@H](NC(=O)[C@@H](N)CCCCNC(=O)CC[C@H](NC(=O)CC[C@H](NC(=O)CCCCCCCCCCCCCCCCCCC(=O)O)C(=O)O)C(=O)O)C(=O)N[C@@H](CC(N)=O)C(=O)N[C@@H]([C@@H](C)O)C(=O)N[C@@H](C)C(=O)N[C@@H]([C@@H](C)O)C(=O)N1)[C@@H](C)O)C(=O)N1CCC[C@H]1C(=O)N[C@@H](CO)C(=O)N[C@@H](CO)C(=O)N[C@H](C(=O)N1CCC[C@H]1C(=O)N[C@H](C(=O)NCC(=O)N1CCC[C@H]1C(=O)N[C@@H](CCCNC(=N)N)C(=O)N[C@H](C(=O)N[C@@H](Cc1ccc(O)cc1)C(N)=O)[C@@H](C)O)C(C)C)[C@@H](C)O
Broadly, the IC50 is the concentration needed to halve the response being measured. Consider B1, for which the 50% inhibitory concentration (IC50) in assay [1] was 0.88 nM; in assay [3] it was 42.8 nM. For the same molecule, the “Ratio hCT/hAmylin binding” value in assay [2] worked out at 48.6.

B2: N^ε1-[(4S)-4-carboxy-4-[[(4S)-4-carboxy-4-(19-carboxynonadecanoylamino)butanoyl]amino]butanoyl]-[Glu14,Arg17,Pro21,Pro27,Arg35]-h-amylin (peptide)
peptide: K([γGlu-γGlu-C20 diacid])CNTATCATQRLAEFLRHSSPNFGAIPSSTNVGSRTY-NH2
modifications: disulfide 2-7; N-terminus assumed
SMILES: CC[C@H](C)[C@H](NC(=O)[C@H](C)NC(=O)CNC(=O)[C@H](Cc1ccccc1)NC(=O)[C@H](CC(N)=O)NC(=O)[C@@H]1CCCN1C(=O)[C@H](CO)NC(=O)[C@H](CO)NC(=O)[C@H](Cc1c[nH]cn1)NC(=O)[C@H](CCCNC(=N)N)NC(=O)[C@H](CC(C)C)NC(=O)[C@H](Cc1ccccc1)NC(=O)[C@H](CCC(=O)O)NC(=O)[C@H](C)NC(=O)[C@H](CC(C)C)NC(=O)[C@H](CCCNC(=N)N)NC(=O)[C@H](CCC(N)=O)NC(=O)[C@@H](NC(=O)[C@H](C)NC(=O)[C@@H]1CSSC[C@H](NC(=O)[C@@H](N)CCCCNC(=O)CC[C@H](NC(=O)CC[C@H](NC(=O)CCCCCCCCCCCCCCCCCCC(=O)O)C(=O)O)C(=O)O)C(=O)N[C@@H](CC(N)=O)C(=O)N[C@@H]([C@@H](C)O)C(=O)N[C@@H](C)C(=O)N[C@@H]([C@@H](C)O)C(=O)N1)[C@@H](C)O)C(=O)N1CCC[C@H]1C(=O)N[C@@H](CO)C(=O)N[C@@H](CO)C(=O)N[C@H](C(=O)N[C@@H](CC(N)=O)C(=O)N[C@H](C(=O)NCC(=O)N[C@@H](CO)C(=O)N[C@@H](CCCNC(=N)N)C(=O)N[C@H](C(=O)N[C@@H](Cc1ccc(O)cc1)C(N)=O)[C@@H](C)O)C(C)C)[C@@H](C)O
notes: also called compound 89
For the molecule B2, the half-maximal inhibitory concentration (IC50) in assay [1] is 1.16 nM; in assay [3], 32.5 nM. The “Ratio hCT/hAmylin binding” value in assay [2] was determined as 28.

B3: N^ε1-[(4S)-4-carboxy-4-[[(4S)-4-carboxy-4-(19-carboxynonadecanoylamino)butanoyl]amino]butanoyl]-[Asp14,Arg17,Pro21,Pro27,Pro34,Glu35]-h-amylin (peptide)
peptide: K([γGlu-γGlu-C20 diacid])CNTATCATQRLADFLRHSSPNFGAIPSSTNVGPETY-NH2
modifications: disulfide 2-7; N-terminus assumed
SMILES: CC[C@H](C)[C@H](NC(=O)[C@H](C)NC(=O)CNC(=O)[C@H](Cc1ccccc1)NC(=O)[C@H](CC(N)=O)NC(=O)[C@@H]1CCCN1C(=O)[C@H](CO)NC(=O)[C@H](CO)NC(=O)[C@H](Cc1c[nH]cn1)NC(=O)[C@H](CCCNC(=N)N)NC(=O)[C@H](CC(C)C)NC(=O)[C@H](Cc1ccccc1)NC(=O)[C@H](CC(=O)O)NC(=O)[C@H](C)NC(=O)[C@H](CC(C)C)NC(=O)[C@H](CCCNC(=N)N)NC(=O)[C@H](CCC(N)=O)NC(=O)[C@@H](NC(=O)[C@H](C)NC(=O)[C@@H]1CSSC[C@H](NC(=O)[C@@H](N)CCCCNC(=O)CC[C@H](NC(=O)CC[C@H](NC(=O)CCCCCCCCCCCCCCCCCCC(=O)O)C(=O)O)C(=O)O)C(=O)N[C@@H](CC(N)=O)C(=O)N[C@@H]([C@@H](C)O)C(=O)N[C@@H](C)C(=O)N[C@@H]([C@@H](C)O)C(=O)N1)[C@@H](C)O)C(=O)N1CCC[C@H]1C(=O)N[C@@H](CO)C(=O)N[C@@H](CO)C(=O)N[C@H](C(=O)N[C@@H](CC(N)=O)C(=O)N[C@H](C(=O)NCC(=O)N1CCC[C@H]1C(=O)N[C@@H](CCC(=O)O)C(=O)N[C@H](C(=O)N[C@@H](Cc1ccc(O)cc1)C(N)=O)[C@@H](C)O)C(C)C)[C@@H](C)O
Take B3: the 50% inhibitory concentration (IC50) in assay [1] was 0.172 nM; in assay [3], 8.56 nM. Moreover, the “Ratio hCT/hAmylin binding” value in assay [2] amounted to 49.8.

B4: N^ε1-[(4S)-4-carboxy-4-[[(4S)-4-carboxy-4-(19-carboxynonadecanoylamino)butanoyl]amino]butanoyl]-[Glu14,Arg17,Pro21,Pro27,Arg34]-h-amylin (peptide)
peptide: K([γGlu-γGlu-C20 diacid])CNTATCATQRLAEFLRHSSPNFGAIPSSTNVGRNTY-NH2
modifications: disulfide 2-7; N-terminus assumed
SMILES: CC[C@H](C)[C@H](NC(=O)[C@H](C)NC(=O)CNC(=O)[C@H](Cc1ccccc1)NC(=O)[C@H](CC(N)=O)NC(=O)[C@@H]1CCCN1C(=O)[C@H](CO)NC(=O)[C@H](CO)NC(=O)[C@H](Cc1c[nH]cn1)NC(=O)[C@H](CCCNC(=N)N)NC(=O)[C@H](CC(C)C)NC(=O)[C@H](Cc1ccccc1)NC(=O)[C@H](CCC(=O)O)NC(=O)[C@H](C)NC(=O)[C@H](CC(C)C)NC(=O)[C@H](CCCNC(=N)N)NC(=O)[C@H](CCC(N)=O)NC(=O)[C@@H](NC(=O)[C@H](C)NC(=O)[C@@H]1CSSC[C@H](NC(=O)[C@@H](N)CCCCNC(=O)CC[C@H](NC(=O)CC[C@H](NC(=O)CCCCCCCCCCCCCCCCCCC(=O)O)C(=O)O)C(=O)O)C(=O)N[C@@H](CC(N)=O)C(=O)N[C@@H]([C@@H](C)O)C(=O)N[C@@H](C)C(=O)N[C@@H]([C@@H](C)O)C(=O)N1)[C@@H](C)O)C(=O)N1CCC[C@H]1C(=O)N[C@@H](CO)C(=O)N[C@@H](CO)C(=O)N[C@H](C(=O)N[C@@H](CC(N)=O)C(=O)N[C@H](C(=O)NCC(=O)N[C@@H](CCCNC(=N)N)C(=O)N[C@@H](CC(N)=O)C(=O)N[C@H](C(=O)N[C@@H](Cc1ccc(O)cc1)C(N)=O)[C@@H](C)O)C(C)C)[C@@H](C)O
notes: also called compound 88
In the case of B4, the figures for the half-maximal inhibitory concentration (IC50) in assay [1] and in assay [3] were 0.75 nM and 34.9 nM, respectively. Further, in assay [2], the “Ratio hCT/hAmylin binding” value came to 46.5.

B5: N^ε1-[(4S)-4-carboxy-4-[[(4S)-4-carboxy-4-(19-carboxynonadecanoylamino)butanoyl]amino]butanoyl]-[Asp14,Arg17,Pro21,Pro27,Pro34,Arg35]-h-amylin (peptide)
peptide: K([γGlu-γGlu-C20 diacid])CNTATCATQRLADFLRHSSPNFGAIPSSTNVGPRTY-NH2
modifications: disulfide 2-7; N-terminus assumed
SMILES: CC[C@H](C)[C@H](NC(=O)[C@H](C)NC(=O)CNC(=O)[C@H](Cc1ccccc1)NC(=O)[C@H](CC(N)=O)NC(=O)[C@@H]1CCCN1C(=O)[C@H](CO)NC(=O)[C@H](CO)NC(=O)[C@H](Cc1c[nH]cn1)NC(=O)[C@H](CCCNC(=N)N)NC(=O)[C@H](CC(C)C)NC(=O)[C@H](Cc1ccccc1)NC(=O)[C@H](CC(=O)O)NC(=O)[C@H](C)NC(=O)[C@H](CC(C)C)NC(=O)[C@H](CCCNC(=N)N)NC(=O)[C@H](CCC(N)=O)NC(=O)[C@@H](NC(=O)[C@H](C)NC(=O)[C@@H]1CSSC[C@H](NC(=O)[C@@H](N)CCCCNC(=O)CC[C@H](NC(=O)CC[C@H](NC(=O)CCCCCCCCCCCCCCCCCCC(=O)O)C(=O)O)C(=O)O)C(=O)N[C@@H](CC(N)=O)C(=O)N[C@@H]([C@@H](C)O)C(=O)N[C@@H](C)C(=O)N[C@@H]([C@@H](C)O)C(=O)N1)[C@@H](C)O)C(=O)N1CCC[C@H]1C(=O)N[C@@H](CO)C(=O)N[C@@H](CO)C(=O)N[C@H](C(=O)N[C@@H](CC(N)=O)C(=O)N[C@H](C(=O)NCC(=O)N1CCC[C@H]1C(=O)N[C@@H](CCCNC(=N)N)C(=O)N[C@H](C(=O)N[C@@H](Cc1ccc(O)cc1)C(N)=O)[C@@H](C)O)C(C)C)[C@@H](C)O
notes: also called compound 130
Regarding B5, the IC50 amounted to 0.453 nM in assay [1] and 127 nM in assay [3]. For the same molecule, the “Ratio hCT/hAmylin binding” value in assay [2] was 280.
